molecular target: T1, Interleukin-8 (IL8, CXCL8), C-terminal His-tagged (Homo sapiens, UniProt P10145 SEQ:1-72); test: competition; competition TR-FRET; conditions: tags: C-terminal 6xHis (Sino Biological)
Procedure: (§1) Activity of each of these variants were tested using a time resolved competition TR-FRET assay in which the labeled parent Aptamer 3 was competed with increasing concentrations of unlabeled variants for binding to IL8 (FIG. 14). Briefly, 2-fold dilutions of thermally equilibrated aptamers were made in TR-FRET Buffer (50 mM MOPS, pH 7.4, 125 mM NaCl, 5 mM KCl, 50 μM CHAPS, 0.1 mg/mL BSA, 1 mM CaCl₂, and 1 mM MgCl₂). 5 μL of aptamer or control solution was added to 5 μl mix of 10 nM C-terminal His-tagged-IL8, 60 nM ALEXA FLUOR® 647-labeled Aptamer, and 5 nM anti-His-Eu (Perkin Elmer) in a black wall low volume 384 well plate (Greiner). For control, 5 μl of 1000-fold excess of unlabeled parent aptamer or 5 μl TR-FRET buffer alone was added to the mix of ALEXA FLUOR® 647-labeled aptamer, His-IL8, and anti-His-Eu. The plate was covered with a plate seal and subsequently incubated in the dark for 1 hour at room temperature. The plate was read on a Biotek CYTATION™ 5 plate reader. Samples were excited at 330 nm and fluorescent values were collected at 665 nm. Data analysis was performed by subtracting the background value and plotting as percent inhibition, normalized to baseline in the absence of competitor. The values were fit by [Inhibitor] vs. response—Variable slope (four parameters) using GraphPad Prism Version 7.0 and then normalized to aptamer control to obtain an IC₅₀ relative to parent aptamer. Data is presented as log values of relative IC₅₀.
To better understand the sequence requirements and confirm the stem structures of members of the Aptamer 8 family as determined from sequence covariation analysis from both the primary and secondary (degenerate) selections, a series of variants which included mutations and deletions to the predicted stems (Tables 45 and 46) were synthesized and screened. Activity of each of these variants was tested using a competition TR-FRET assay in which the labeled parent Aptamer 8 was competed with increasing concentration of unlabeled variants for binding to IL8 as described in Example 11.

Question: With CGGUGGGAAAUAUGAGAUGGGUUGCCG (ssRNA, 2'-F G, 2'-OMe A/C/U, 5' C6NH2, 3' idT) [Aptamer 113] as the binder, how does the binding signal read?
Answer: The binding signal was > 10 fold worse than Aptamer 8.

Question: CGGUGGGAAAUGUGAGAUGGGAUGCCG (ssRNA, 2'-F G, 2'-OMe A/C/U, 5' C6NH2, 3' idT) [Aptamer 215] was tested. Which binding signal did it give?
Answer: Its binding signal is > 10 fold worse than Aptamer 8.

Question: For CGGUGGGAAAUCUGAGAUGGGUUGCCG (ssRNA, 2'-F G, 2'-OMe A/C/U, 5' C6NH2, 3' idT) [Aptamer 112], which binding signal is on record?
Answer: The binding signal was > 10 fold worse than Aptamer 8.

Question: Does CUGUGGGAAAUGUGAGAUGGGUUGCAG (ssRNA, 2'-F G, 2'-OMe A/C/U, 5' C6NH2, 3' idT) [Aptamer 216] bind?
Answer: Result: binds

Question: Does CGAUGGGAAAUGUGAGAUGGGUUGUCG (ssRNA, 2'-F G, 2'-OMe A/C/U, 5' C6NH2, 3' idT) [Aptamer 218] bind?
Answer: Result: binds

Question: How did the binding signal turn out when CGGUGGGACACGCGAGAUGGGUGGCCG (ssRNA, 2'-F G, 2'-OMe A/C/U, 5' C6NH2, 3' idT) [Aptamer 118] was run?
Answer: The binding signal was > 10 fold worse than Aptamer 8.

Question: With CGGUGGGAAAUUUGAGAUGGGUUGCCG (ssRNA, 2'-F G, 2'-OMe A/C/U, 5' C6NH2, 3' idT) [Aptamer 114] as the binder, how does the binding signal read?
Answer: Its binding signal is > 10 fold worse than Aptamer 8.

Question: Which binding signal does the source give for CGGUGGGAACUGUGAGAUGGGGUGCCG (ssRNA, 2'-F G, 2'-OMe A/C/U, 5' C6NH2, 3' idT) [Aptamer 154] here?
Answer: The binding signal was > 10 fold worse than Aptamer 8.

Question: With CGGUGGGAACCGUGAGAUGGGGUGCCG (ssRNA, 2'-F G, 2'-OMe A/C/U, 5' C6NH2, 3' idT) [Aptamer 155] as the binder, how does the binding signal read?
Answer: The binding signal was > 10 fold worse than Aptamer 8.

Question: With CGGUGGGAAACGCGAGAUGGGUUGCCG (ssRNA, 2'-F G, 2'-OMe A/C/U, 5' C6NH2, 3' idT) [Aptamer 117] as the binder, how does the binding signal read?
Answer: The binding signal was > 10 fold worse than Aptamer 8.

Question: With CGGUGGGAAACCUGAGAUGGGUUGCCG (ssRNA, 2'-F G, 2'-OMe A/C/U, 5' C6NH2, 3' idT) [Aptamer 119] as the binder, how does the binding signal read?
Answer: The binding signal was > 10 fold worse than Aptamer 8.

Question: How did the binding signal turn out when CGGUGGGAAACCCGAGAUGGGUUGCCG (ssRNA, 2'-F G, 2'-OMe A/C/U, 5' C6NH2, 3' idT) [Aptamer 120] was run?
Answer: The binding signal was > 10 fold worse than Aptamer 8.

Question: Does CGCUGGGAAAUGUGAGAUGGGUUGGCG (ssRNA, 2'-F G, 2'-OMe A/C/U, 5' C6NH2, 3' idT) [Aptamer 217] bind?
Answer: Result: binds

Question: For CGGUGGGAAAUGCGAGAUGGGUUGCCG (ssRNA, 2'-F G, 2'-OMe A/C/U, 5' C6NH2, 3' idT) [Aptamer 115], which binding signal is on record?
Answer: Its binding signal is > 10 fold worse than Aptamer 8.

Question: Which binding signal does the source give for CGGUGGGACACCCGAGAUGGGUGGCCG (ssRNA, 2'-F G, 2'-OMe A/C/U, 5' C6NH2, 3' idT) [Aptamer 121] here?
Answer: Its binding signal is > 10 fold worse than Aptamer 8.

same assay, conditions: tags: C-terminal 6xHis (Sino Biological); stem-loop

Question: Does CGGUGGGAAAUGUGAGAUGGGUUGCCG (ssRNA, 2'-F G, 2'-OMe A/C/U, 5' C6NH2, 3' idT) [Aptamer 32] bind?
Answer: Result: binds

molecular target: T1, Interleukin-8 (IL8, CXCL8), C-terminal …; test: competition; competition TR-FRET; conditions: tags: C-terminal 6xHis (Sino Biological); remark: another data set of the same source
Procedure: as §1, with “To better understand the sequence requirements and to confirm the stem structures of members of the Aptamer 3 family as determined from sequence covariation analysis from both the primary and secondary (degenerate) selections, a series of variants which included mutations and deletions to the predicted stems were synthesized and screened (Table 24). Activity” for “Activity”
To test the effects of variation in this region on aptamer function, aptamer clones from Round 5 of the degenerate selection which had mutations in loop L3 were synthesized (Table 26). All of the compounds were tested in the competition TR-FRET assay.

Question: Does UGAUGACGAUAGAUUUCGGGUAGUGUGAUCGCAUCU (ssRNA, 2'-F G, 2'-OMe A/C/U, 5' C6NH2, 3' idT) [Aptamer 106] bind?
Answer: Result: binds

Question: Does UGAUGACGGUAGAUUACGGGUUGUGUGACCGCAUCU (ssRNA, 2'-F G, 2'-OMe A/C/U, 5' C6NH2, 3' idT) [Aptamer 105] bind?
Answer: Result: binds

Question: Does UGAUGACGGUAGAUUACGGGCAGUGUGACCGCAUCU (ssRNA, 2'-F G, 2'-OMe A/C/U, 5' C6NH2, 3' idT) [Aptamer 96] bind?
Answer: Result: binds

Question: Does UGAUGACGGUAGAUUACGGGAAGUGUGACCGCAUCU (ssRNA, 2'-F G, 2'-OMe A/C/U, 5' C6NH2, 3' idT) [Aptamer 98] bind?
Answer: Result: binds

Question: Does UGAUGACGGUAGAUUAAGGGUAGUGUGACCGCAUCU (ssRNA, 2'-F G, 2'-OMe A/C/U, 5' C6NH2, 3' idT) [Aptamer 104] bind?
Answer: Result: binds

Question: Does UGAUGACGGUAGAUUACGGGGAGUGUGACCGCAUCU (ssRNA, 2'-F G, 2'-OMe A/C/U, 5' C6NH2, 3' idT) [Aptamer 97] bind?
Answer: Result: binds

Question: Does UGAUGACGGUAGAUUAUGGGUAGUGUGACCGCAUCU (ssRNA, 2'-F G, 2'-OMe A/C/U, 5' C6NH2, 3' idT) [Aptamer 111] bind?
Answer: Result: binds

Question: Does UCAUGACGGUAGAUUACGGGUAGAGUGACCGCAUGU (ssRNA, 2'-F G, 2'-OMe A/C/U, 5' C6NH2, 3' idT) [Aptamer 102] bind?
Answer: Result: binds

Question: Does UGAUGACGGUAGAUAACGGGUAGAGUGACCGCAUCU (ssRNA, 2'-F G, 2'-OMe A/C/U, 5' C6NH2, 3' idT) [Aptamer 108] bind?
Answer: Result: binds

Question: Does UGAUGACGGUAGAUUACGGGAAGAGUGACCGCAUCU (ssRNA, 2'-F G, 2'-OMe A/C/U, 5' C6NH2, 3' idT) [Aptamer 103] bind?
Answer: Result: binds

Question: Does UGAUGACGGUAGAUAACGGGUAGUGUGACCGCAUCU (ssRNA, 2'-F G, 2'-OMe A/C/U, 5' C6NH2, 3' idT) [Aptamer 109] bind?
Answer: Result: binds

Question: Does UGAUGACGGUAGAUUCCGGGUAGUGUGACCGCAUCU (ssRNA, 2'-F G, 2'-OMe A/C/U, 5' C6NH2, 3' idT) [Aptamer 95] bind?
Answer: Result: binds

Question: Does UCAUGACGGUAGAUUUCGGGUAGUGUGACCGCAUGU (ssRNA, 2'-F G, 2'-OMe A/C/U, 5' C6NH2, 3' idT) [Aptamer 101] bind?
Answer: Result: binds

Question: Which binding signal does the source give for UGAUGACGGUAGAUUAUGGGAAGUGUGACCGCAUCU (ssRNA, 2'-F G, 2'-OMe A/C/U, 5' C6NH2, 3' idT) [Aptamer 100] here?
Answer: The binding signal was > 10 fold better than Aptamer 3.

Question: Does UGAUGACGGUAGAUUUCGGGAAGUGUGACCGCAUCU (ssRNA, 2'-F G, 2'-OMe A/C/U, 5' C6NH2, 3' idT) [Aptamer 110] bind?
Answer: Result: binds

molecular target: T1, Interleukin-8 (IL8, CXCL8), C-terminal …; test: competition; competition TR-FRET; conditions: tags: C-terminal 6xHis (Sino Biological); remark: another data set of the same source
Procedure: as §1, with “To better understand the sequence requirements and to confirm the stem structures of members of the Aptamer 3 family as determined from sequence covariation analysis from both the primary and secondary (degenerate) selections, a series of variants which included mutations and deletions to the predicted stems were synthesized and screened (Table 24). Activity” for “Activity”

Question: Does UCAUGACGGUAGAUUACGGGUAGAGUGACCGCAUGU (ssRNA, 2'-F G, 2'-OMe A/C/U, 5' C6NH2, 3' idT) [Aptamer 183] bind?
Answer: Result: binds

Question: Does UCUUGACGGUAGAUUACGGGUAGAGUGACCGCAUCU (ssRNA, 2'-F G, 2'-OMe A/C/U, 5' C6NH2, 3' idT) [Aptamer 187] bind?
Answer: Result: binds

Question: Does UGAUGACGAUAGAUUACGGGUAGAGUGAUCGCAUCU (ssRNA, 2'-F G, 2'-OMe A/C/U, 5' C6NH2, 3' idT) [Aptamer 186] bind?
Answer: Result: binds

Question: Does UGCUGACGGUAGAUUACGGGUAGAGUGACCGCAGCU (ssRNA, 2'-F G, 2'-OMe A/C/U, 5' C6NH2, 3' idT) [Aptamer 209] bind?
Answer: Result: binds

Question: Does UGAUCACGGUAGAUUACGGGUAGAGUGACCGGAUCU (ssRNA, 2'-F G, 2'-OMe A/C/U, 5' C6NH2, 3' idT) [Aptamer 184] bind?
Answer: Result: binds

Question: Does UGAUGACAGUAGAUUACGGGUAGAGUGACUGCAUCU (ssRNA, 2'-F G, 2'-OMe A/C/U, 5' C6NH2, 3' idT) [Aptamer 185] bind?
Answer: Result: binds

Question: Does UGCCGACGGUAGAUUACGGGUAGAGUGACCGCGGCU (ssRNA, 2'-F G, 2'-OMe A/C/U, 5' C6NH2, 3' idT) [Aptamer 208] bind?
Answer: Result: binds

Question: Does UGGCGACGGUAGAUUACGGGUAGAGUGACCGCGCCU (ssRNA, 2'-F G, 2'-OMe A/C/U, 5' C6NH2, 3' idT) [Aptamer 210] bind?
Answer: Result: binds

same assay, conditions: tags: C-terminal 6xHis (Sino Biological); stem-loop

Question: Does GAUGACGGUAGAUUACGGGUAGAGUGACCGCAUC (ssRNA, 2'-F G, 2'-OMe A/C/U, 5' C6NH2, 3' idT) [Aptamer 38] bind?
Answer: Result: binds

Question: Does GGCGACGGUAGAUUACGGGUAGAGUGACCGCGCC (ssRNA, 2'-F G, 2'-OMe A/C/U, 5' C6NH2, 3' idT) [Aptamer 92] bind?
Answer: Result: binds

Reference: patent publication US20210230599, “STEM-LOOP COMPOSITIONS AND METHODS FOR INHIBITING INTERLEUKIN-8” (VITRISA THERAPEUTICS, INC., published 2021)
